# In the supplement of paper PMC10598134:
# ± gives the standard deviation.
# Experiment: collision cross section of modified peptide (TIMS, N2, iRT-aligned); higher = larger / more extended gas-phase ion
# Method in brief: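 On a timsTOF Pro/HT (dda-PASEF, nitrogen, ~2.4 mbar), synthetic peptide pools were analysed after a 120-min nanoflow C18 separation at 60 °C and identified in MaxQuant. Three reference ions served for 1/K0 calibration, with run-wise alignment to the median iRT peptide deviation. Collision cross section comes from the Mason-Schamp equation, using the most abundant feature per charge state averaged over 1–3 technical replicates.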
# [1] = charge state: 2, modification: Glutarylation
# [2] = charge state: 3, modification: Glutarylation
# [3] = charge state: 2, modification: GlyGly (K)
# [4] = charge state: 3, modification: GlyGly (K)
# [5] = charge state: 2, modification: Malonyl
# [6] = charge state: 2, modification: Methyl (K)
# [7] = charge state: 3, modification: Methyl (K)
# [8] = charge state: 2, modification: Propionyl
# [9] = charge state: 3, modification: Propionyl
# [10] = charge state: 2, modification: Succinyl
# [11] = charge state: 3, modification: Succinyl
# [12] = charge state: 2, modification: Trimethyl (K)
# [13] = charge state: 3, modification: Trimethyl (K)
# [14] = charge state: 2, modification: hydroxyisobutyryl
# [15] = charge state: 3, modification: hydroxyisobutyryl
# [16] = charge state: 2, modification: Citrullination (R)
# [17] = charge state: 3, modification: Methyl (R)
# [18] = charge state: 2, modification: HexNAc (ST)
# [19] = charge state: 2, modification: Acetyl (K)
# [20] = charge state: 3, modification: Acetyl (K)
# [21] = charge state: 2, modification: Butyryl
# [22] = charge state: 3, modification: Butyryl
# [23] = charge state: 2, modification: Crotonyl
# [24] = charge state: 3, modification: Crotonyl
# [25] = charge state: 2, modification: Dimethyl (K)
# [26] = charge state: 3, modification: Dimethyl (K)
# [27] = charge state: 2, modification: Formyl
# [28] = charge state: 3, modification: Formyl
# [29] = charge state: 3, modification: Malonyl
# [30] = charge state: 3, modification: Biotin
# [31] = charge state: 2, modification: Biotin
sequence,measurement,setting,value
SGNLTEDDKHNNAK [_SGNLTEDDK(Gluratylation)HNNAK_],collision cross section,[1],428.34 ± 1.5 Å²
same,collision cross section,[2],486.64 ± 2.8 Å²
SGNLTEDDKHNNAK [_SGNLTEDDK(GlyGly (K))HNNAK_],collision cross section,[3],432.48 ± 1.6 Å²
same,collision cross section,[4],495.64 ± 0.34 Å²
SGNLTEDDKHNNAK [_SGNLTEDDK(Malonyl)HNNAK_],collision cross section,[5],417.21 ± 1.6 Å²
SGNLTEDDKHNNAK [_SGNLTEDDK(Methyl (K))HNNAK_],collision cross section,[6],417.49 ± 1.1 Å²
same,collision cross section,[7],487.35 ± 2.7 Å²
SGNLTEDDKHNNAK [_SGNLTEDDK(Propionyl)HNNAK_],collision cross section,[8],423.13 ± 0.36 Å²
same,collision cross section,[9],471.16 Å²
SGNLTEDDKHNNAK [_SGNLTEDDK(Succinyl)HNNAK_],collision cross section,[10],424.64 ± 1.1 Å²
same,collision cross section,[11],478.73 ± 2.5 Å²
SGNLTEDDKHNNAK [_SGNLTEDDK(Trimethyl (K))HNNAK_],collision cross section,[12],419.32 ± 0.75 Å²
same,collision cross section,[13],469.66 ± 1.5 Å²
SGNLTEDDKHNNAK [_SGNLTEDDK(hydroxyisobutyryl)HNNAK_],collision cross section,[14],427.86 ± 0.82 Å²
same,collision cross section,[15],488.54 ± 1.1 Å²
SGRGGNFGFGDSR [_SGR(Citrullination (R))GGNFGFGDSR_],collision cross section,[16],379.38 ± 0.54 Å²
SGRGGNFGFGDSR [_SGR(Methyl (R))GGNFGFGDSR_],collision cross section,[17],452.71 ± 3.1 Å²
SGYSSPGSPGTPGSR [_SGYSSPGSPGTPGS(HexNAc (ST))R_],collision cross section,[18],394.87 ± 0.13 Å²
SHLRHAIPSAER [_SHLR(Citrullination (R))HAIPSAER_],collision cross section,[16],388.58 ± 0.81 Å²
same,collision cross section,"charge state: 3, modification: Citrullination (R)",492.66 ± 4.6 Å²
SHLRHAIPSAER [_SHLR(Methyl (R))HAIPSAER_],collision cross section,"charge state: 2, modification: Methyl (R)",404.4 Å²
same,collision cross section,[17],477.29 ± 19 Å²
SISQSISGQK [_S(HexNAc (ST))ISQSISGQK_],collision cross section,[18],366.39 ± 0.12 Å²
SITHSTVGSKGEK [_SITHSTVGSK(Acetyl (K))GEK_],collision cross section,[19],391.66 ± 1.8 Å²
same,collision cross section,[20],440.5 ± 4 Å²
SITHSTVGSKGEK [_SITHSTVGSK(Butyryl)GEK_],collision cross section,[21],396.1 ± 0.79 Å²
same,collision cross section,[22],440.88 ± 2.8 Å²
SITHSTVGSKGEK [_SITHSTVGSK(Crotonyl)GEK_],collision cross section,[23],402.71 ± 8.6 Å²
same,collision cross section,[24],442.34 ± 1.6 Å²
SITHSTVGSKGEK [_SITHSTVGSK(Dimethyl (K))GEK_],collision cross section,[25],401.87 ± 2.2 Å²
same,collision cross section,[26],464.51 ± 2.1 Å²
SITHSTVGSKGEK [_SITHSTVGSK(Formyl)GEK_],collision cross section,[27],387.87 ± 1.4 Å²
same,collision cross section,[28],435.39 ± 3 Å²
SITHSTVGSKGEK [_SITHSTVGSK(Gluratylation)GEK_],collision cross section,[1],400.44 ± 2.1 Å²
same,collision cross section,[2],444.81 ± 2 Å²
SITHSTVGSKGEK [_SITHSTVGSK(GlyGly (K))GEK_],collision cross section,[3],404.23 ± 1.4 Å²
same,collision cross section,[4],469.84 ± 1.3 Å²
SITHSTVGSKGEK [_SITHSTVGSK(Malonyl)GEK_],collision cross section,[5],390.69 ± 2.2 Å²
same,collision cross section,[29],440.36 ± 2.7 Å²
SITHSTVGSKGEK [_SITHSTVGSK(Methyl (K))GEK_],collision cross section,[6],402.47 ± 1.2 Å²
same,collision cross section,[7],466.28 ± 2.9 Å²
SITHSTVGSKGEK [_SITHSTVGSK(Propionyl)GEK_],collision cross section,[8],395.17 ± 0.94 Å²
same,collision cross section,[9],443.25 ± 0.59 Å²
SITHSTVGSKGEK [_SITHSTVGSK(Succinyl)GEK_],collision cross section,[10],392.73 ± 1.4 Å²
same,collision cross section,[11],442.37 ± 2.9 Å²
SITHSTVGSKGEK [_SITHSTVGSK(Trimethyl (K))GEK_],collision cross section,[12],408.54 ± 2.1 Å²
same,collision cross section,[13],473.59 ± 1.5 Å²
SITHSTVGSKGEK [_SITHSTVGSK(hydroxyisobutyryl)GEK_],collision cross section,[14],401.03 ± 1.4 Å²
same,collision cross section,[15],446.16 ± 2.7 Å²
SKHLQEQLNELK [_SK(Acetyl (K))HLQEQLNELK_],collision cross section,[19],415.42 ± 1.7 Å²
same,collision cross section,[20],483.11 ± 1.6 Å²
SKHLQEQLNELK [_SK(Biotin)HLQEQLNELK_],collision cross section,[30],520.89 Å²
SKHLQEQLNELK [_SK(Butyryl)HLQEQLNELK_],collision cross section,[21],422.39 ± 0.24 Å²
same,collision cross section,[22],490.06 ± 2.9 Å²
SKHLQEQLNELK [_SK(Crotonyl)HLQEQLNELK_],collision cross section,[23],421.79 ± 0.28 Å²
same,collision cross section,[24],491.86 ± 3.7 Å²
SKHLQEQLNELK [_SK(Dimethyl (K))HLQEQLNELK_],collision cross section,[26],492.51 ± 0.54 Å²
SKHLQEQLNELK [_SK(Formyl)HLQEQLNELK_],collision cross section,[27],412.77 ± 0.19 Å²
same,collision cross section,[28],477.47 ± 2.1 Å²
SKHLQEQLNELK [_SK(Gluratylation)HLQEQLNELK_],collision cross section,[1],423.49 ± 0.97 Å²
same,collision cross section,[2],496.16 ± 2 Å²
SKHLQEQLNELK [_SK(GlyGly (K))HLQEQLNELK_],collision cross section,[3],420.45 ± 1.4 Å²
same,collision cross section,[4],495.28 ± 2 Å²
SKHLQEQLNELK [_SK(Malonyl)HLQEQLNELK_],collision cross section,[5],415.64 Å²
same,collision cross section,[29],480.76 ± 0.91 Å²
SKHLQEQLNELK [_SK(Methyl (K))HLQEQLNELK_],collision cross section,[6],411.32 ± 1.9 Å²
same,collision cross section,[7],492.52 ± 1.8 Å²
SKHLQEQLNELK [_SK(Succinyl)HLQEQLNELK_],collision cross section,[10],419.21 ± 1.5 Å²
same,collision cross section,[11],481.12 ± 2 Å²
SKHLQEQLNELK [_SK(Trimethyl (K))HLQEQLNELK_],collision cross section,[12],417.87 Å²
same,collision cross section,[13],506.13 ± 1.6 Å²
SKHLQEQLNELK [_SK(hydroxyisobutyryl)HLQEQLNELK_],collision cross section,[14],425.52 ± 0.81 Å²
same,collision cross section,[15],492.58 ± 2.1 Å²
SKLLFSNTAAQK [_SK(Acetyl (K))LLFSNTAAQK_],collision cross section,[19],396.66 ± 1.3 Å²
SKLLFSNTAAQK [_SK(Biotin)LLFSNTAAQK_],collision cross section,[31],417.26 ± 2.9 Å²
SKLLFSNTAAQK [_SK(Butyryl)LLFSNTAAQK_],collision cross section,[21],402.3 ± 1.3 Å²
SKLLFSNTAAQK [_SK(Crotonyl)LLFSNTAAQK_],collision cross section,[23],402.06 ± 0.79 Å²
SKLLFSNTAAQK [_SK(Dimethyl (K))LLFSNTAAQK_],collision cross section,[25],389.15 Å²
SKLLFSNTAAQK [_SK(Formyl)LLFSNTAAQK_],collision cross section,[27],390.83 ± 0.41 Å²
SKLLFSNTAAQK [_SK(Gluratylation)LLFSNTAAQK_],collision cross section,[1],403.03 ± 0.5 Å²
SKLLFSNTAAQK [_SK(GlyGly (K))LLFSNTAAQK_],collision cross section,[3],396.71 ± 0.37 Å²
same,collision cross section,[4],447.27 ± 13 Å²
SKLLFSNTAAQK [_SK(Malonyl)LLFSNTAAQK_],collision cross section,[5],394.73 ± 0.61 Å²
SKLLFSNTAAQK [_SK(Methyl (K))LLFSNTAAQK_],collision cross section,[6],387.94 ± 0.83 Å²
same,collision cross section,[7],461.44 ± 4.6 Å²
SKLLFSNTAAQK [_SK(Propionyl)LLFSNTAAQK_],collision cross section,[8],398.2 ± 1.4 Å²
SKLLFSNTAAQK [_SK(Succinyl)LLFSNTAAQK_],collision cross section,[10],398.22 ± 0.77 Å²
SKLLFSNTAAQK [_SK(Trimethyl (K))LLFSNTAAQK_],collision cross section,[12],395.61 ± 0.017 Å²
same,collision cross section,[13],446.07 ± 2.4 Å²
SKLLFSNTAAQK [_SK(hydroxyisobutyryl)LLFSNTAAQK_],collision cross section,[14],404.35 ± 0.3 Å²
SLEEEGAAHSGKR [_SLEEEGAAHSGK(Acetyl (K))R_],collision cross section,[19],412.49 ± 2.4 Å²
same,collision cross section,[20],476.34 ± 2.4 Å²
SLEEEGAAHSGKR [_SLEEEGAAHSGK(Biotin)R_],collision cross section,[31],428.85 Å²
same,collision cross section,[30],493.19 Å²
SLEEEGAAHSGKR [_SLEEEGAAHSGK(Butyryl)R_],collision cross section,[21],418.69 ± 0.77 Å²
same,collision cross section,[22],478.81 ± 1.8 Å²
SLEEEGAAHSGKR [_SLEEEGAAHSGK(Crotonyl)R_],collision cross section,[23],420.35 ± 1.1 Å²
same,collision cross section,[24],486.66 ± 11 Å²
SLEEEGAAHSGKR [_SLEEEGAAHSGK(Dimethyl (K))R_],collision cross section,[25],412.8 ± 3 Å²
same,collision cross section,[26],453.89 ± 1.2 Å²
SLEEEGAAHSGKR [_SLEEEGAAHSGK(Formyl)R_],collision cross section,[27],409.43 ± 1.8 Å²
same,collision cross section,[28],472.26 ± 2.9 Å²
SLEEEGAAHSGKR [_SLEEEGAAHSGK(Gluratylation)R_],collision cross section,[1],420.5 ± 2 Å²
same,collision cross section,[2],475.56 ± 1.7 Å²
SLEEEGAAHSGKR [_SLEEEGAAHSGK(GlyGly (K))R_],collision cross section,[3],418.89 ± 1.9 Å²
same,collision cross section,[4],473.02 ± 0.33 Å²
SLEEEGAAHSGKR [_SLEEEGAAHSGK(Malonyl)R_],collision cross section,[5],414.03 ± 1.2 Å²
SLEEEGAAHSGKR [_SLEEEGAAHSGK(Methyl (K))R_],collision cross section,[6],413.71 ± 2.6 Å²
same,collision cross section,[7],459.06 ± 3.1 Å²
